Columns and labels:
[1] = molecular target: T1, N-acetyl-alanyl-alanyl-dioleoyl phosphatidylethanolamine
T1 chain: AA

[2] = molecular target: T2, MeO-suc-ala-ala-pro-val-DOPE (1,2-Dioleoyl-sn-glycero-3-phosphoethanolamido-val-pro-ala-ala-sucMeO)
T2 chain: AAPV

B1: proteinase K (protein)
chain: AAQTNAPWGLARISSTSPGTSTYYYDESAGQGSCVYVIDTGIEASHPEFEGRAQMVKTYYYSSRDGNGHGTHCAGTVGSRTYGVAKKTQLFGVKVLDDNGSGQYSTIIAGMDFVASDKNNRNCPKGVVASLSLGGGYSSSVNSAAARLQSSGVMVAVAAGNNNADARNYSPASEPSVCTVGASDRYDRRSSFSNYGSVLDIFGPGTSILSTWIGGSTRSISGTSMATPHVAGLAAYLMTLGKTTAASACRYIADTANKGDLSNIPFGTVNLLAYNNYQA
[1]
  cleavage of N-Ac-AA-DOPE to DOPE, TLC: Upon incubation of N-Ac-AA-DOPE liposomes with proteinase K the peptide-lipid was cleaved and DOPE was generated
  cleavage of N-Ac-AA-DOPE, HPLC: Both elastase and proteinase K cleaved N-Ac-AA-DOPE to a similar extent
  cleavage of N-Ac-ala-ala-DOPE, HPLC: both proteinase K, with a known cleavage site, and the nonspecific mixture of proteases found in pronase, effected cleavage of N-Ac-ala-ala-DOPE from the liposomes
  conversion of N-acetyl-ala-ala-DOPE to DOPE, 31P NMR integration: approximately 20% of the N-acetyl-ala-ala-DOPE was converted to pure DOPE in sample B

B2: Human leukocyte elastase (protein)
chain: IVGGRRARPHAWPFMVSLQLRGGHFCGATLIAPNFVMSAAHCVANVNVRAVRVVLGAHNLSRREPTRQVFAVQRIFENGYDPVNLLNDIVILQLNGSATINANVQVAQLPAQGRRLGNGVQCLAMGWGLLGRNRGIASVLQELNVTVVTSLCRRSNVCTLVRGRQAGVCFGDSGSPLVCNGLIHGIASFVRGGCASGLYPDAFAPVAQFVNWIDSIIQ
[2]
  cleavage of MeO-suc-ala-ala-pro-val-DOPE, TLC, HLE dose titration: between 5-40 micrograms of HLE were effective in cleaving the AAPV-PE
  conversion of MeO-suc-AAPV-DOPE to DOPE, 31P-NMR: Treatment with 5 micrograms of elastase/100 nmol lipid yielded 20% DOPE
  conversion of exposed (outer leaflet) MeO-suc-AAPV-DOPE to DOPE, 31P-NMR, assuming unilamellar vesicles: the minimal percentage conversion of exposed MeO-suc-AAPV-DOPE (SEQ ID NO:42) to DOPE in the outer leaflet lipid of this preparation was 40%
  kinetics of cleavage of MeO-suc-ala-ala-pro-val-DOPE, TLC: The peptide was cleaved by HLE in as little as 1 hour at 37 degrees C.
[1]
  cleavage of N-Ac-AA-DOPE to DOPE, TLC: Treatment of N-Ac-AA-DOPE liposomes with elastase generated a product corresponding to DOPE
  cleavage of N-Ac-AA-DOPE, HPLC: Both elastase and proteinase K cleaved N-Ac-AA-DOPE to a similar extent

Source: patent publication US6339069
